From IntAct's records for PubMed 24229708

B1: Runt-related transcription factor 3 (Homo sapiens), Q13761 (parent)
chain: MRIPVDPSTSRRFTPPSPAFPCGGGGGKMGENSGALSAQAAVGPGGRARPEVRSMVDVLADHAGELVRTDSPNFLCSVLPSHWRCNKTLPVAFKVVALGDVPDGTVVTVMAGNDENYSAELRNASAVMKNQVARFNDLRFVGRSGRGKSFTLTITVFTNPTQVATYHRAIKVTVDGPREPRRHRQKLEDQTKPFPDRFGDLERLRMRVTPSTPSPRGSLSTTSHFSSQPQTPIQGTSELNPFSDPRQFDRSFPTLPTLTESRFPDPRMHYPGAMSAAFPYSATPSGTSISSLSVAGMPATSRFHHTYLPPPYPGAPQNQSGPFQANPSPYHLYYGTSSGSYQFSMVAGSSSGGDRSPTRMLASCTSSAASVAAGNLMNPSLGGQSDGVEADGSHSNSPTALSTPGRMDEAVWRPY

Variants of: B1
Conditions: with brd2_human BRD2, P25440

Row | Variant | effect of a mutation on the interaction
1 | K94R | disrupting interaction
2 | K87R;K94R;K129R;K148R;K171R;K186R | disrupting interaction

Next, values leading:

Row | effect of a mutation on the interaction | Variant
3 | decreasing interaction | K171R
4 | disrupting interaction | K94R;K171R
